Substrate in the data set: Nc1ncnc2c1ncn2[C@@H]1O[C@H](COP(=O)(O)OP(=O)(O)OP(=O)(O)O)[C@@H](O)[C@H]1O
The data set can be described thus: purified protein. The data set is classed as biochemical, Saccharomyces cerevisiae. The note with it: 500 nM Pah1 as protein substrate, 10 mM MgCl2, 2 mM DTT, pH 7.5, 30 °C, labelled compound.

B1: Hsl1 (Saccharomyces cerevisiae S288C) (protein)
chain: MTGHVSKTSHVPKGRPSSLAKKAAKRAMAKVNSNPKRASGHLERVVQSVNDATKRLSQPDSTVSVATKSSKRKSRDTVGPWKLGKTLGKGSSGRVRLAKNMETGQLAAIKIVPKKKAFVHCSNNGTVPNSYSSSMVTSNVSSPSIASREHSNHSQTNPYGIEREIVIMKLISHTNVMALFEVWENKSELYLVLEYVDGGELFDYLVSKGKLPEREAIHYFKQIVEGVSYCHSFNICHRDLKPENLLLDKKNRRIKIADFGMAALELPNKLLKTSCGSPHYASPEIVMGRPYHGGPSDVWSCGIVLFALLTGHLPFNDDNIKKLLLKVQSGKYQMPSNLSSEARDLISKILVIDPEKRITTQEILKHPLIKKYDDLPVNKVLRKMRKDNMARGKSNSDLHLLNNVSPSIVTLHSKGEIDESILRSLQILWHGVSRELITAKLLQKPMSEEKLFYSLLLQYKQRHSISLSSSSENKKSATESSVNEPRIEYASKTANNTGLRSENNDVKTLHSLEIHSEDTSTVNQNNAITGVNTEINAPVLAQKSQFSINTLSQPESDKAEAEAVTLPPAIPIFNASSSRIFRNSYTSISSRSRRSLRLSNSRLSLSASTSRETVHDNEMPLPQLPKSPSRYSLSRRAIHASPSTKSIHKSLSRKNIAATVAARRTLQNSASKRSLYSLQSISKRSLNLNDLLVFDDPLPSKKPASENVNKSEPHSLESDSDFEILCDQILFGNALDRILEEEEDNEKERDTQRQRQNDTKSSADTFTISGVSTNKENEGPEYPTKIEKNQFNMSYKPSENMSGLSSFPIFEKENTLSSSYLEEQKPKRAALSDITNSFNKMNKQEGMRIEKKIQREQLQKKNDRPSPLKPIQHQELRVNSLPNDQGKPSLSLDPRRNISQPVNSKVESLLQGLKFKKEPASHWTHERGSLFMSEHVEDEKPVKASDVSIESSYVPLTTVATSSRDPSVLAESSTIQKPMLSLPSSFLNTSMTFKNLSQILADDGDDKHLSVPQNQSRSVAMSHPLRKQSAKISLTPRSNLNANLSVKRNQGSPGSYLSNDLDGISDMTFAMEIPTNTFTAQAIQLMNNDTDNNKINTSPKASSFTKEKVIKSAAYISKEKEPDNSDTNYIPDYTIPNTYDEKAINIFEDAPSDEGSLNTSSSESDSRASVHRKAVSIDTMATTNVLTPATNVRVSLYWNNNSSGIPRETTEEILSKLRLSPENPSNTHMQKRFSSTRGSRDSNALGISQSLQSMFKDLEEDQDGHTSQADILESSMSYSKRRPSEESVNPKQRVTMLFDEEEEESKKVGGGKIKEEHTKLDNKISEESSQLVLPVVEKKENANNTENNYSKIPKPSTIKVTKDTAMESNTQTHTKKPILKSVQNVEVEEAPSSDKKNWFVKLFQNFSSHNNATKASKNHVTNISFDDAHMLTLNEFNKNSIDYQLKNLDHKFGRKVVEYDCKFVKGNFKFKIKITSTPNASTVITVKKRSKHSNTSSNKAFEKFNDDVERVIRNAGRS
notes: full-length with C-terminal TAP tag kept (chromosomal HSL1-TAP); IgG-Sepharose purified from S. cerevisiae, endogenously phosphorylated; ~190 kDa on gel
As for B1, the Km turned out to be 31 µM.

A word on the Km: it is the concentration of substrate that gives half-maximal velocity.
